In the domain aggregation screens of Martell et al. (2025):

Assay: soluble fraction after stress (log2 fold change); higher = more stays soluble; pooled small domains, quantitative proteomics
Settings: stress: 50 degC
Procedure, shortened: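 Pooled custom libraries of small protein domains were measured in a high-throughput format, with quantitative proteomics as the read-out. Each library was stressed at 50°C. Aggregation propensity is given as the base-two logarithm of the fold change in how much of each protein stays soluble after the stress. Higher values mean a larger share of the protein remains in solution.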

Sequence | soluble fraction (log2)
HMGNIADARRDASYVFLIGEWAKSSNLTEKKLAGLIQSNHLDIKYGITVTDVIADIRKYKNDPTYNPF | -0.305
HMTELSLSEQAYQQLRRMIVRLDFAPGDVLREEALQEALGMSRTPIREALQRLAREHFVTVIPRRGMFVS | -2.28
HMVVMEIGANGSEVVKLQKRLNQLGYYTEHASGVYDVKTASAVNEFQRQNELNATGKADYTTLDMIYNQ | 0.02
HMKDTFHNLSEEKRERIIRAALGEFAASGYEKATLDGVVQAAGISKGGLYEYISSKEDLFRYLLEYSYD | -1.53
HMPLLSEWDAALEELWAKLGDVPMDPETERMDAPFLGFPAGTPREDIWHWFDERHSKGVAHLLYG | -2.37
HMNESEALIARIENLPPIEDLTEKHAEEVKALMTVYSKLKMSDRILVTNYGVLKKDFDALVKKGFLTNED | 0.0784
HMTPAKQVSAKAERWIDQLGSSDWEKREEAAAELKKLGGAAKSALEKALKNADPEVASKAEELLEALES | 0.0311
HMRYLHTMIRVSDLEESLNFFKLLDIHEVSRKENEQARFTLVFLSATGDEKLVENAKSPLIELTFN | -0.0584
HMIEGSSDWKPNMILDDGGDLTKIIHEEYQDLLDDIRGLSEETTTGVLRLYEMEKENSLAVPAINVND | 0.276
HMGLAWTVEGRTVLLGRTADRIELYNVGGGLVALARESDRISAPGVGLYVVRVVSDGQSVSQKIWIT | -0.394
HMSETVYQYVARQLRDMLGSGEIPVGQQLPTYRELAKRFQVSLSVIQRAMRQLKAEAVVSIAHGQGVKAVR | -0.42
HMDPLASLTPREREVLSLMAQGLSNLAVAERLVVSAGAVEKHISSIFTKLDLAPSEHEHRRVLAVLRYVAG | -3.2
HMNKVDEEKNAELVSTIQNKFSDVSAATKKKVKAFMAEHDIPNFKNADEIPTANLEAIVAMLNED | 0.229
HMQKLKINKYKDPKGEIRYYIASTIRNGNKSSTHNLLSLGKHSDLLKEHSDVEAYLKERLNEAMESGI | -0.145
HMDGFAEFWSAYPKKVGKGAAEASWRKHRPPLQTVLDAVKRQAESDQWRKDGGQFIPNPATWLNQKRWEDD | 0.0948
HMRGPDLSKDFHEYISSQWMFFGRNAYQIAEQINKDTQLMSKYGKTTPSGVHYHIKQIQQEMEN | -0.398
HMAMTQNVDLAGRIVFNEKKEEVFNFGKHKGRSVAEVFEKEPSYYDWMLKGDFPAETKQVLTALRLRGLS | -0.0725
HMRPTDVLNYDESMRILNFSNNRVGFKHLMDAKGIEQVIFKNRKIGYRKSEILALKSELEAEQK | -0.341
HMVKVSVYPNPAVDRITISGEVKAYAVYDATGKVVMKDTDYRGGAIGVSHLPAGIYIVRTDAGAVTVNK | -0.652
HMDSDFIKIEVLFNERNRLDLKAMMEASGFTDRGQFLSIMADLTGDENWDRNLDRGDIFYLPRSFTI | -1.22
HMSELADDPVYTALEKAADKAGLQLTVRILNDLADAVLKRGKKKLTAAQAGKVIARAESELAKSRID | -0.0759
HMETINERVNSIIEREGHTVATFAKKIGVPWTTIKNIVSGRNAPSYDIMVKIINAVDWVDANYLVMG | -1.98
HMTATDRQLQLIAYTAARLMAEQGIADFNAAKRKAIQTLGLPNNAKLPGNADVEAQLRAYQRIF | -0.133
HMTDVGLEAAKAAALKHAGLSADQVTGLTAKLDWDDGQRVYEVDFWQGSTEYEYEINADGTVRQYESEAH | 0.228
HMKSAIKQNILLYLSNKGVTSYEFYKISGVTRGILQQSNGISEDNIAKFLAYAPDVNIEWLLTGKGDMLKH | -1.32

Sequence | soluble fraction (log2)
HMSSLSGVRRTLLDSLGMPPDASDEELADRREELRGSLDTAPQARRKWIEQQLARIDAITALDASG | -0.035
HMARLAGVDLPREKRIEIGLTYIYGIGLARSQEILKKAGINPDIRVKDLTDEQEQAIRNAMDGYIVEGDL | -0.148
HMGVKHKHKGAGELLAALRTMFPNSSVSTLRKMLTQGRVVLNGEVVHRAKHELTDGDTIEVLERQRAER | 0.209
HMEGLATRLRFLRQARGLSYHALARLSGVTHTALHQIEAGKNIPGLDTAEKIAMALDVDPRWFAYGRGDPS | -1.31
HMVEVPKVAGMSTAQGVSELEQKGFVVNRTESYDDTVPKGNIISQTPEGGTKVPSGSAVTIKISQGAE | -0.157
HMEITTEDIAAQVASWIVRLSEDLTSTDRAALQIEFEQWQQTDSRRAEIAHKMLSLIGQAEQLRKT | -0.207
HMAGWIPVEERLPDDLTNPITRDAYVYPVTVDLGDVTDIRYYSFWRGHWYNQGPETMDDLVIAWMLLPEPY | -0.0981
HMNAEGLIGREAVALTAVDAHGGRVRLGGEEWSARLSKENGGVSRLSVGDPVRVTDIDGAIAVVAP | 0.187
HMGSGLAAAEKIRKAHPEIKIVVATSLIDTQVLARAKAVGADSLWYKDGDEGTLMQVVRRTMAGDHIFP | -0.00704
HMFDTVKIGKRIAELRKKRDMTQFELADRLGISYQAVSNWERGNSMPDIAKLPELAEIFGVTVDEILG | 0.161
HMTSLGLEGLVNTTAIATSDLRPSGWALAGERKIFVVSEGEFIDNGDKIRILTVDGNRIVVRKETNK | -0.051
HMEDQFWQNRAEMALASARRAGRIVTYAEMADAADIPAPQRIHKLTLWLEATMRQDHASGQPLRAALV | 0.0463
HMTADIRFLNSRKFYIYKVEKGETLFSISQKFNIPQEEIIQFNKDINQQGLKAKTKLWVPAYSWL | -3.38
HMGLVLIDSYNDIGSAKLITNKIRNLGLIFEENENKINVFAGPFEKNDINLKIDFLIRNGYTNAQLY | -2.48
HMEMPGGVMRTLSTIAYNQPVLQSKLVKVRGPRAYEDVHILRDMGLVSARSVGQTVELSTTPKFAEQF | -0.265
HMSLSIKINHESVGLRLDQFLQEHYYKQQSRSYVQHAIKEGYILVNGQSVKNGYMLKLDDLIELEAI | -1.59
HMGSQQIEEGMRRLVASGALRPGASVPSVRDLARDLQVNPATVVRAYQRLVDAGLLVVRRGEGTFVAE | -0.588
HMDAHYMEMKGKTGTAFTMLRPAGKIDIEGQIFDAVAEAGFIEKGEAIRVVKYENAQLIVRK | 0.11
HMTAPQAQDYARVPDVLGLDMRESAQALRLDGFEMNAQGDGLAARQSPIGGSYAPEGTQVLVTFEM | 0.102
HMSRAHTELEEKLLTMLEENDMTLPMRVISNIASRIEGIIIPEEKILEVLKKSYDRYREHQMD | 0.0257
HMWNPVLVVRGDFPKDLATTLLKMIFAQKEALNPHILFQNLLRTDNITFRESYPYHSASKTMFRF | -0.148
HMFYNELMNFIVYKDSQKIGKIVNINDKLPQPVFEVLINDKKFMVPIHDDFIEKIDKEKKSIHIVIPDGLL | 0.0184
HMISKTFEINEDNINNRLDIFLANQFDNLSRGIVQKLIESHSVSVSGNFVEKDYKLKLGDIIDVEINLS | -0.486
HMSPKYLELVRWINTQIQEKKLTAGQKMYSENELKEMFGVSRQTVRHAISVLEGEGMIRRVRGSGTYINDN | -1.83
HMFIPMTDAQRHLFANKLAKLPELSEYSRGTESYEDFAIRIADMLLEPPKFRMFYPLLEQLGF | -1.88

Sequence | soluble fraction (log2)
HMGLTRRAQLEVADANLKRLYPGMHQSWVTAIAEYLHSSYWRYINSLEPEYAASIQRVYEQHIDAM | 0.0529
HMVYFAKNIRHLRRLRGMSQELLAAELDITRARLGAYEESRSEPPLHLLIKISEFFKLPVDIIVKNDLTKS | -3.66
HMEQFRENIVRIYMEIDDYENGAKFLEMGNNRDASFYELAGDFYKYFGENELANENYDLAISA | -0.387
HMDLGEQIIEKLRAAGGFLAITDKSPAEEIYELFATSKKNYKKAVGGLYKKGLLVIEDDGIRLTPAGR | -0.102
HMQGRIYLNPDLAEKLRAQYAAYPHWSYLLHTENLGALVRKTESLGPMPSYSTILRYMHANDMRKRNKP | -1.6
HMRTANREKRIEASVKMMKAGYPVGYIIARVFMYEGWEEDYRQLLIYLSEKIPKDVSNPITFEVIS | -0.296
HMRTPLTGREEQVATLIGRGMTNSEIAESLSVDESTVKTHIGSILRKVHLRDRLQVALWFHGLPIE | -0.495
HMKSVILQLHPETLRWIREEAQADMADASVIQLLNDWELGTKKPTLSQVQKLSHETHIPFGYFFLKEKPA | -0.45
HMIYNSGTTDSRGEAIVGGYLVTVTDTDTKDPVANAAVTLHKDNSISIRLPNSRLLDYADQTTVTVQLV | -0.0327
HMDINIETLNYYVGKAKIPLSELRISVKNIDLFLSGEKQPTFNQLSSIAKKLNIPTGLLLLDESIEV | -2.74
HMSNRIDKIKLNHWLNIRKTSLDVLNNLLSKHLNHKINFENLENLDEQAIEKISEVLSIPKNKLLINDDVP | 0.16
HMKMLSIQRREAIRALLLEKESITIAEVMEKFQISVETARRDFDALADEGFLNKVYGGATLKK | -1.37
HMTGMEAAEFGKRIMKLRKQKGMTQSKLAEQINVSNKAISRWETGEGFPEITLLKPLAKALGTTVDELFGE | -0.204
HMPKRYAGPDIIAIYGSDVFFRVGSGDGLMVIPVGRSMDNIEVVSVDAPRSVELMWKDGGPFTVPV | -0.165
HMSVTYRYSYVYNGNTYSDGWSVRRAIENNENKRFGPEPSDLDHEAQKQARVTFWAEHGVEYKEQEVV | -0.879
HMDRFVLQLSKRYYDSSIEGVRKALAAFPVKTELLDQDRGGRPFYHENGKENEPVFRIMFHPEEGM | -0.542
HMFIVTDQMQRVLDYITEKEKATNNDLEELLGVKSTRIYTITRKLIQHNLIIPVGKGKNKYYIL | -0.79
HMETPDLTQLNPILDEYRGQKGAVIPVLQKAQKIYGFLPPEVLRRIAAGMRVPLSKIYGVATFYSQFY | 0.0579
HMNNTIKFSVDENNSGKRLDVYLTENINHLTRSFLKKLIEKEQVKLNKKVLTSPATKVKTKDQITINIIE | 0.172
HMSPPALAVQRDGSNVQISWPGAEEGWRLESSAEPSGAAWDLIAQNPTPVGGRWTVSLTEPTGRRFYRLVK | 0.0321
HMQPNVTRERILAAAMTVFAQKGWQKTSLDEVAAAAGMTKGAIYWHFRNKNDLFFALLDARLQRD | -1.97
HMDRWTPLVVAVLSRGSHRFGELRAAIGGITPKVLTDTLRSMERDGLITRDQAPGVPPRVDYALTPLGS | -1.12
HMIELTTDYKKRVVEALVSARENYSGSDSDFARKWSIDKTVYSRLKKGYQEGLLSVGKYIELGMELNVSSR | -1.34
HMRQDEKTLLYWIGAQVKREGKLIKTSTAQYLVEKTGTDMENLEKELEKLFAYTLDEKEITPAAIDEI | -1.8
HMDQINNDLRKLIEFLPEDQKTVLKMRHFQEMSFKEIAKATGVSINTALGRMRYALINLRKLIEENEI | -1.41
